As usually defined, the Kd is the equilibrium constant for the complex coming apart. Read a low Kd as higher affinity.

The source of these data is article PMC5758903.

In data set [1] the target is T1, HisTag-PCNA (human, UniProt P12004 1-261). The experiment in a line: pull-down.
Data set [2] has as its target PCNA (tag-free);DNA polymerase delta (human;human, UniProt P12004;P28340;P49005;Q15054;Q9HCU8 1-261;1-1107;1-469;1-466;1-107, |). The experiment in a line: EMSA. In general terms: In EMSA bound probe runs differently from free probe, usually more slowly.
In data set [3] the target is DNA polymerase delta (human, UniProt P28340;P49005;Q15054;Q9HCU8 1-1107;1-469;1-466;1-107). The experiment in a line: EMSA.
Sequence of DNA polymerase delta (P28340 whole entry, stated change not applied, chain 1 of 4): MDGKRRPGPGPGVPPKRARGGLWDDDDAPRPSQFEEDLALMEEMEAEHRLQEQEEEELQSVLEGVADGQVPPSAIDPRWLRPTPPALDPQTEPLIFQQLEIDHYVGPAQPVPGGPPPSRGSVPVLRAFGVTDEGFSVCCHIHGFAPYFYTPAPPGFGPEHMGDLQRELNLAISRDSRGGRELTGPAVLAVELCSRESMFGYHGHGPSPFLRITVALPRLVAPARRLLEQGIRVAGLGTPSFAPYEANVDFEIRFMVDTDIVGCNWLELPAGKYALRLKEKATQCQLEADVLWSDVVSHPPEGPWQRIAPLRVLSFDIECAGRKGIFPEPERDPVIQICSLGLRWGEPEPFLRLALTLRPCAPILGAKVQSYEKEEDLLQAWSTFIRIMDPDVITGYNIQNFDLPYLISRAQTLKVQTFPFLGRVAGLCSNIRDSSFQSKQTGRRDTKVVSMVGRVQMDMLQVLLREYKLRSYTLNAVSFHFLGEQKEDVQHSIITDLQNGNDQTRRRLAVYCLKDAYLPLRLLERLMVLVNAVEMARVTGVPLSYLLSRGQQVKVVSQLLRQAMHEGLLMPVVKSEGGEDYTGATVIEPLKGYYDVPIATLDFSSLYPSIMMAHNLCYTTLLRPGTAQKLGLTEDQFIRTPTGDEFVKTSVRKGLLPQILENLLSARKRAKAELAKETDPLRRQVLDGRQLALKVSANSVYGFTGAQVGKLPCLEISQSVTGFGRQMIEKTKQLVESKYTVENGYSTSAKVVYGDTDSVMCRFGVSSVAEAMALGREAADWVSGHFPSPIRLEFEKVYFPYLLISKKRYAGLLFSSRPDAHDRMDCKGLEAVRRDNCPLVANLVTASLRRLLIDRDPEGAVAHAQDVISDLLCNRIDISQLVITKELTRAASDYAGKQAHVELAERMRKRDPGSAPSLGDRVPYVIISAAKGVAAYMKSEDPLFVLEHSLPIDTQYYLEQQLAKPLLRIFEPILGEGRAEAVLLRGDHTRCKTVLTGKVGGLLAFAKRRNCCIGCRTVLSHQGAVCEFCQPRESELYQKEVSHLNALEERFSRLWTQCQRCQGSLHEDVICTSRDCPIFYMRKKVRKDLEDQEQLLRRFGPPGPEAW
Sequence of DNA polymerase delta (P49005 whole entry, stated change not applied, chain 2 of 4): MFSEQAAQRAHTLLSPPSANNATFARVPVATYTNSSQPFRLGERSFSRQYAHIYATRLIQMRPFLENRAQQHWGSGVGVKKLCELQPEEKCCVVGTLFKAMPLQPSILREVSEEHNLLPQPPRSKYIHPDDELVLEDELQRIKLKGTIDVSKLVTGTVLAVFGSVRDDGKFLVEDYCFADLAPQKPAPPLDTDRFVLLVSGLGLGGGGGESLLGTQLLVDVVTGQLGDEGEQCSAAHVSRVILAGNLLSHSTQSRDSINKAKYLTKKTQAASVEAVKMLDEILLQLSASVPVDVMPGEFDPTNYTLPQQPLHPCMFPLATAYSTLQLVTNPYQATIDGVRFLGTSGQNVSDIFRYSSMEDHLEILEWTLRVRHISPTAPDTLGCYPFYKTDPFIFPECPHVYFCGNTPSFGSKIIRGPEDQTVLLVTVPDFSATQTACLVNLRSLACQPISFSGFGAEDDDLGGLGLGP
Sequence of DNA polymerase delta (Q15054 whole entry, stated change not applied, chain 3 of 4): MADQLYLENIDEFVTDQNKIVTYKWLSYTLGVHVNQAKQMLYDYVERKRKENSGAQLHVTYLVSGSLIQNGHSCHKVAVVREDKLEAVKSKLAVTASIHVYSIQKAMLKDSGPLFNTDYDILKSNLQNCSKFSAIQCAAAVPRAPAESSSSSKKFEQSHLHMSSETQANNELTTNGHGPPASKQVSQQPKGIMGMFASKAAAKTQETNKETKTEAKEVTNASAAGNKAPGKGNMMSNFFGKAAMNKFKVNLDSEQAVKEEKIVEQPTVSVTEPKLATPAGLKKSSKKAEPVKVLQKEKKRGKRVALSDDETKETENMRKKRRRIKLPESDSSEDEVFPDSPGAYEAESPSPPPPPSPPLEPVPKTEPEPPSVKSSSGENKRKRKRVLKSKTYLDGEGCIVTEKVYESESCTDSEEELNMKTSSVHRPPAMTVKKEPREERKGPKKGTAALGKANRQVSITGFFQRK
Sequence of DNA polymerase delta (Q9HCU8 whole entry, stated change not applied, chain 4 of 4): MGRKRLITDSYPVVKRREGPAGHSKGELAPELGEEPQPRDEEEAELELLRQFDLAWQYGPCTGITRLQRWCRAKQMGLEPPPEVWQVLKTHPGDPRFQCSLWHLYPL
Data set [4] has as its target T1, HisTag-PCNA. Put plainly: ITC. A general note: ITC needs no label: the signal is the heat of the interaction.
Data set [5] deals with T1, HisTag-PCNA. The experiment in a line: pull-down titration.

T1 sequence (P12004 whole entry): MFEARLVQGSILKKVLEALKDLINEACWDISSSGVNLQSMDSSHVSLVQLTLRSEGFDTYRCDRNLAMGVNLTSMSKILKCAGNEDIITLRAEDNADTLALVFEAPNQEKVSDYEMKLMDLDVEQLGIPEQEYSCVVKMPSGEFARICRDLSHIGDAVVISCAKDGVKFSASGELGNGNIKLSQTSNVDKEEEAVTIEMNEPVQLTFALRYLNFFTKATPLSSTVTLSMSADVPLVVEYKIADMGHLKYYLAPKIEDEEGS

B1: Ref aptamer (ssDNA)
DNA: ACTGACTGACTGACTGACTGACTGACTGACTGACTGACTGACTGACTGACTGACTGACTGACTGACTGACTGACTGACT
Take B1: the binding result in data set [1] is “no binding”.

B2: A1 -20/5' (structured_DNA)
DNA: CCTATGGTCCCCGCGTAGGTGGCAGCTCAAACCCGATTCGAGGAACATGCGTCGCAAAC
For B2, the binding result in data set [1] is given as “no binding”.
CATGCTTCCCCAGGGAGATGCCTATGGTCCCCGCGTAGG (structured_DNA) [A1 -40/3']: in data set [1], the binding result is on record as “no binding”.
On to CATGCTTCCCCAGGGAGATGCCTATGGTCCCCGCGTAGGTGGCAGCTCA (structured_DNA) [alpha-PCNA aptamer (A1 -30/3')], for which the values for the binding result in data set [2] and in data set [3] were “binds” and “no binding”, respectively. Further, the Kd in data set [4] worked out at 2 ± 0.64 µM; in data set [5] it was 5.1 ± 0.59 µM.
